Usually EC50 stands for the concentration needed to bring the measured effect to its halfway point. A lower EC50 goes with higher potency in that assay.

The target of this assay is SARS-CoV-2 Spike S1 protein, B.1.1.7 (UK (Kent)) variant (SARS-CoV-2) (UniProt P0DTC2). Briefly: ELISA. The note with it: designed binder.

“Neumifil (HEX17: trimeric (hexavalent) form based on S. pneumoniae CBM40)” yielded an EC50 of 0.137 µg/mL.

Values taken from patent US20230125561A1.
